From paper PMC5722895

Columns and labels:
[1] = target: His6-tagged full-length TF (E. coli) (UniProt P0A850); test: SEC-MALS; preliminary data on His6-tagged full-length TF; elution concentration 10 µM; conservative estimate of KD
[2] = target: RBD–SBD (1–148/247–432) (E. coli) (UniProt P0A850); test: SEC-MALS; sample buffer (20 mM K-phosphate pH 6.5, 100 mM KCl, 0.5 mM EDTA); 6 °C for the individual domains; concentration series fitted to a fast monomer–dimer equilibrium; dimer to monomers
[3] = target: RBD–SBD (1–148/247–432) (E. coli) (UniProt P0A850); test: SEC-MALS; as a2 but 250 mM KCl; dimer to monomers
[4] = target: RBD–SBD (1–148/247–432) (E. coli) (UniProt P0A850); test: SEC-MALS; as a2 but 500 mM KCl; dimer to monomers
[5] = target: RBD–SBD (1–148/247–432) (E. coli) (UniProt P0A850); test: AUC; sedimentation equilibrium, 6 °C, 100 mM KCl (sample buffer: 20 mM K-phosphate pH 6.5, 100 mM KCl, 0.5 mM EDTA); 12 μM TF, 48 and 135 μM RBD–SBD; global fit to a monomer–dimer model; dimer to monomers

Kd [1] | stoichiometry N [1] | Kd [2] | stoichiometry N [2] | Kd [3] | Kd [4] | Kd [5] | Substance
< 100 nM | 2 | – | – | – | – | – | His6-tagged full-length TF (from UniProt P0A850 1-432) (natural protein)
– | – | 72 µM | 2 | > 500 µM | > 500 µM | 54 µM | RBD–SBD (1–148/247–432) (from UniProt P0A850 1-148; P0A850 247-432) (domain or fragment)
